Measured values published in publication PMC3482342 (Journal of molecular biology, 2011).

Biological target: T1, Full-length MukF (E. coli, UniProt P60293 1-440)
T1 sequence (looked up): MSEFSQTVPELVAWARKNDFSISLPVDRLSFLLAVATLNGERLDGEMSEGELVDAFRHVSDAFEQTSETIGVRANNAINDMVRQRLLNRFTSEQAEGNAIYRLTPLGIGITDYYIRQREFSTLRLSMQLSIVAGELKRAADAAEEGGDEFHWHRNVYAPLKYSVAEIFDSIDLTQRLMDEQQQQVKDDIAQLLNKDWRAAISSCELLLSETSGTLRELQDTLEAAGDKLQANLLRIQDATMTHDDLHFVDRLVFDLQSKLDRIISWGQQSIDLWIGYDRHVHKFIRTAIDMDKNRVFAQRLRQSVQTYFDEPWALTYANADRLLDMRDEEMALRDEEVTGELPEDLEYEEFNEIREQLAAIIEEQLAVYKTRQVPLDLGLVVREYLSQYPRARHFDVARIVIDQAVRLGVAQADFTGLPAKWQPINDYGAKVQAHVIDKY
Experiment: AUC

B1: MukE-DRER (MukE-D196A/R198A/E199S/R202S) (natural protein, E. coli, UniProt P22524 10-234, looked up)
chain: MPVKLAQALANPLFPALDSALRSGRHIGLDELDNHAFLMDFQEYLEEFYARYNVELIRAPEGFFYLRPRSTTLIPRSVLSELDMMVGKILCYLYLSPERLANEGIFTQQELYDELLTLADEAKLLKLVNNRSTGSDVDRQKLQEKVRSSLNRLRRLGMVWFMGHDSSKFRITESVFRFGADVRAGDAPASAQSRLIRDGEAMPIENHLQLNDETEENQPDSGEEE
In the case of B1, the “stoichiometry N” value is reported as 2 MukE per MukF.
